Experimental data: publication PMC5374546

B1: derCD23 (soluble monomeric lectin-like head domain of human CD23, Ser156-Glu298) (domain or fragment)
chain: SGFVCNTCPEKWINFQRKCYYFGKGTKQWVHARYACDDMEGQLVSIHSPEEQDFLTKHASHTGSWIGLRNLDLKGEFIWVDGSHVDYSNWAPGEPTSRSQGEDCVMMRGSGRWNDAFCDRKLGAWVCDRLATCTPPASEGSAE

Experiments:
[1] = target: Fcε3-4 Fcε3-4 (Homo sapiens) (UniProt P01854); test: sedimentation equilibrium; details: cited from earlier work
[2] = target: IgE-Fc (Val224-Lys547, with glycosylation-site double mutation N265Q and N371Q) (human); test: ITC; 260 uM derCD23 in the syringe titrated into 12.5 uM IgE-Fc dimer in the cell; 25 mM Tris-HCl pH 7.4, 125 mM NaCl, 4 mM CaCl2; 25 °C; iTC200; two-site (2:1) binding model

UniProt P01854, sequence (P01854 209-426): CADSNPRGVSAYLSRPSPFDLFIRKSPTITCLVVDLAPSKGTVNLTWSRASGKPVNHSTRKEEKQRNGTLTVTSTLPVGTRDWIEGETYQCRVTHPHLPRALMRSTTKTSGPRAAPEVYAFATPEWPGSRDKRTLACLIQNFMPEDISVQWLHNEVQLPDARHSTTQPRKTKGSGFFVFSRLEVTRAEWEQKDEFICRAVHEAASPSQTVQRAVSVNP

Molecule | Kd [1] [µM] | KD1 (site 1 of the two-site model) [2] [µM] | KD2 (site 2 of the two-site model) [2] [µM] | dH1 (site 1 of the two-site model) [2] [kcal/mol] | dH2 (site 2 of the two-site model) [2] [kcal/mol] | stoichiometry N (derCD23 per IgE-Fc dimer) [2]
derCD23 derCD23 (from UniProt P06734) | 10 |  |  |  |  | 
B1 |  | 1.2 | 14.4 | -7.2 | -3.7 | 2
